The target of experiment [1] is porcine CSF-1R expressed in Ba/F3 cells (pig).
Experiment [2] shares this target. This is another data set of the same source.

EC50, MTT cell viability assay, Ba/F3 cells expressing porcine CSF-1R, EC50, MTT cell viability assay, Ba/F3 cells expressing porcine CSF-1R (compared with bacterially produced porcine CSF-1) and EC50, MTT cell viability assay, Ba/F3 cells expressing porcine CSF-1R (compared with rhIL-34) data for three molecules are collected here from article PMC3500696.

Read-outs that look alike come from different tables or passages of the source.

“bacterially produced porcine CSF-1 (active fragment Ser36-Arg189) (ligand)” displayed an EC50, MTT cell viability assay, Ba/F3 cells expressing porcine CSF-1R in experiment [1] of 0.029 mg/L.
In the case of “recombinant human CSF-1 (from UniProt P09603 33-554) (ligand)”, the EC50, MTT cell viability assay, Ba/F3 cells expressing porcine CSF-1R (compared with bacterially produced porcine CSF-1) in experiment [1] was 0.034 mg/L. In experiment [2], this molecule registered an EC50, MTT cell viability assay, Ba/F3 cells expressing porcine CSF-1R (compared with rhIL-34) of 0.1 mg/L.

B1: recombinant human Interleukin 34 (ligand)
chain: NEPLEMWPLTQNEECTVTGFLRDKLQYRSRLQYMKHYFPINYKISVPYEGVFRIANVTRLQRAQVSERELRYLWVLVSLSATESVQDVLLEGHPSWKYLQEVETLLLNVQQGLTDVEVSPKVESVLSLLNAPGPNLKLVRPKALLDNCFRVMELLYCSCCKQSSVLNWQDCEVPSPQSCSPEPSLQYAATQLYPPPPWSPSSPPHSTGSVRPVRAQGEGLLP
On to B1, for which the EC50, MTT cell viability assay, Ba/F3 cells expressing porcine CSF-1R in experiment [2] worked out at 0.137 mg/L.
